According to the RNAGym collection of RNA variant scans (doi:10.1073/pnas.2313332121):
Variants at the floor of the assay were thinned out.

B1: TPR 5TU (parent)
chain: GGAUCUUCUCGAUCUAACAAAAAAGACAAAUCUGCCACAAAGCUUGAGAGCAUCUUCGGAUGCAGAGGCGGCAGCCUUCGGUGGCGCGAUAGCGCCAACGUUCUCAACUAUGACACGCAAAACGCGUGCUCCGUUGAAUGGAGUUUAUCAUG

Variants of: B1
Test: polymerase ribozyme fitness, log enrichment relative to wild type (log ratio); higher = more active; in vitro selection for triplet polymerase activity
Summary of the method: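 The heterodimeric triplet polymerase ribozyme's subunits were each mutagenized into PCR-built libraries and transcribed. Every library was selected once, in triplicate, by annealing with a biotinylated primer, the partner subunit and triplets, incubating frozen at −7 °C, gel-excising extended constructs, capturing on streptavidin beads and running RT-PCR. Input and output libraries were Illumina-sequenced, with genotypes kept only at ≥10 input reads and ≥1 read per output. Fitness, from inverse-variance-weighted replicate averages, is the base-2 logarithm of genotype enrichment over wild-type enrichment.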

Variant	polymerase ribozyme fitness (log ratio)
GGAUCUUCUCGAUCUAACAAAAAAGACAAAUCUGCCACAAAGCUUGACAACAUUUUCGGAUGCAGAGGCGGCAGCCUUCGGUGGAGCGAUAGCGCCAACGUUCUCAACUAUGACACGCAAAACGCGUGGUCCGUUGAAUGGAGUUUAUCAUG	≤ -4.2
GGAUCUUCUCGAUCUAACAAAAAAGACAAAUCUGCCACAAAGCUUGACAGCAUCUUCGGAUGCAGAGGCGGCAGCCUUCGGUGGCGCGUUAGCGCCAACGUUCUCUCCUAUGACACGCAGAACGCGUGCUCCGUUGAAGGGAGUUUAUCAUG	≤ -4.2
GGAUCUUCUCGAUCUAACAAAAAAGACAAAUCUGCCACAAAGCUUGACAGCAUCUUCGGAUGCAGAGGCGGCAGCCUUCGGUGGCGCGAUAGCGCCAACGUUCUCAACUAUGACACGGAGAACGCGUGCUCCGUUGAAUGGAGUUUAUCAUG	-3.82
GGAUCUUCUCGAUCUAACAAAAAAGACAAAUCUGCCACAAAGCUUGACAGCAUCUUCGGAUGCAGAGGCGGCAGCCUUCGGUGGCGAGAUAGCGCCAACGUUCUCAACUAUGACACGCAAAACGCGUGCGCCGUUGAAUGGAGUUUAUCAUG	≤ -4.2
GGAUCUUCUCGAUCUAACAAAAAAGACAAAUCUGCCACAAAGCUUGACAGCAUCUUCGGAUGCAGAGGCGGCAGCCUUCGGUGGCGCGCUAGCGCCAACGUUCUCAACUAUGACACGCAAAACGCGUGCUCCGUUGAAUGGAGUUUAUCAUG	-0.506
GGAUCUUCUCGAUCUAACAAAAAAGACAAAUCUGCCACAAAGCUUGACAGUAUUUUUGGAUGCAGAGGCGGCAGCCUUCGGUGGCGCGACAGCGCCAACGUUCUCAACUAUGACACGCAAAACGCGUGCUCCGUUGAGUGGAGAUUAUCAUG	≤ -4.2
GGAUCUUCUCGAUCUAACAAAAAAGACAAAUCUGCCACAAAGCUUGACAGCAUCUUAGGAUGCAGAGGCGGGAGCCUUCGGUGGCGCGAUAGCGCCAACGUUCUCAACUAUGACACGCAAAACGCGUGCUCCGUUGAAUGGAGUUUAUCAUG	≤ -4.2
GGAUCUUCUCGAUCUAACAAAAAAGACAAAUCUGCCACAAAGCUUGACCGCAUCUUCGGAUGCAGAGGCGGCAGCCUUCGGUGGCGCGAUAGCGCCAACGUUCUCAACUAUGACACGCAAAACGCGUGCUCCGUUGAAUGGAGUUUAUCAUG	-3.92
GGAUCUUCUCGAUCUAACAAAAAAGACAAAUCUGCCACAAAGCUUGACAACAUCUUCGGAUGCAGAGGCGGCAGCCUUCGUUGGCGCGAUAGCGACAACGUUCUCAACUAUGACACGCAAAACGCGUGCUCCGUUGAAUGGAGUUGAUCAUG	-3.35
GGAUCUUCUCGAUCUAACAAAAAAGACAAAUCUGCCACAAAGCUUGAAAGCACCUUCGGAUGCAGAGGCGGCAGCCUUCGGUGGCGCGAUACCGUCACCGUUCUCAACUAUGACACGCAAAACGCGUGCUCCGUUGAAUGGAGUUUAUCAUG	-1.65
GGAUCUUCUCGAUCUAACAAAAAAGACAAAUCUGCCACAAAGCUUGACAGCAUCUUCCGAUGCAGAGGCGGCAGCCUUCGGUGGCGCGAUAGCGCCAAGGUUCUCAACUAUGACACGCAAAACGCGUGCUCCGUUGAAUGGAGUUUAUCAUG	≤ -4.2
GGAUCUUCUCGAUCUAACAAAAAAGACAAAUCUGCCACAAAGCUUGAAAGCAUCUUCGGAAGCAGAGGCGGCAGCCUUCGGUGGCGCGAUAGCGCCAACGUUCUCAACUAUGACACGCAAAACGCGUGCUCCGUUGAAUGGAGUUUAUCAUG	-2.86
GGAUCUUCUCGAUCUAACAAAAAAGACAAAUCUGCCACAAAGCUUGACAGCAUCUUAGGAUGCAGAGGCGGCAGCCUUCGGUGGCGCGAUAGCGCCAAUGUUCUCAACUAUGACACGCAAAACGCGUGCCCCGUUGAAUGGAGUUUAUCAUG	-2.37
GGAUCUUCUCGAUCUAACAAAAAAGACAAAUCUGCCACAAAGCUUGAAAGCAUCGUCGGAUGCAGAGGCGGCAGCCUUCGGUGGGGGGAUAGCGCCAACGUUCUCAACUAUGACACGCAAAACGCGUGCUCCGUUGAAUGGAGUUUAUGAUG	≤ -4.2
GGAUCUUCUCGAUCUAACAAAAAAGACAAAUCUGCCACAAAGCUUGACAGCAUCUUCGGAUGCAGAGGCGGCAGCCUUCGGUGGAGCGAUAGCGCCAACGUUCUCAACUAUGACACGCAAAACGCGUGCUCCGUUGAAUGGAGUUUAUCAUG	-2.58
GGAUCUUCUCGAUCUAACAAAAAAGACAAAUCUGCCACAAAGCUUGACAGCGUCUUCGGAUGCAGAGGCGGCAGCCUUCGGUGGCGCGAUAGCGCCAACGUUCUCAACUAUGACACGCAAAACGCGUGCUCCGUUGAAUGGAGUUUAUCAUG	-1.29
GGAUCUUCUCGAUCUAACAAAAAAGACAAAUCUGCCACAAAGCUUGACAGCAUCUUCGGAUGCAGAGGCGGCAGGCUUCGGUGGCGGGAUCGCGCCAACGUUGUCAACUAUGACACGCAAAACGCGUGCUCCGGCGAAUGGAGUUUAUCAUG	≤ -4.2
GGAUCUUCUCGAUCUAACAAAAAAGACAAAUCUGCCACAAAGCUUGACAGCAUCUUCGGAUGCAGAGGCGGCAGUCUUCGAUGUCGCGAUAGCGCCUACGUUCUCAACUAUGACACGCAAAACGCGUGCUCCGUUGAAUGUAGUUUAUCUUG	≤ -4.2
GGAUCUUCUCGAUCUAACAAAAAAGACAAAUCUGCCACAAAGCUUGACAGCCUCUUCGGAUGCAGAGGCGGCAGCCUUCGGUGGGGCGAUACCGCCAACGUUCUCAACUAUGACACGCUAAACGCAUGCUCCGUUGAUUGGAGUUUAUCAUG	≤ -4.2
